System: His6-KfrA G38A (plasmid RA3 (IncU; Aeromonas hydrophila in Fig S1/S3))
Test: EMSA
Conditions: EMSA: 50 mM Tris-HCl pH 8.0, 10 mM MgCl2, 50 mM NaCl, 37 C, 30 min, 10 nM EcoRI-NdeI-digested plasmid DNA (vector fragment as internal competitor), 20 ul …

“WT OK (kfrAp), EcoRI-NdeI fragment of pESB2.68” gave a K half of 260 nM.

From article PMC7783346
